Results: article PMC3107159, “Resistance to organic hydroperoxides requires ohr and ohrR genes in Sinorhizobium meliloti” (BMC Microbiology, 2011)
Positions count from the first letter of the chain named.

Assays:
[1] = target: T1, OhrR (Sinorhizobium meliloti, UniProt Q92RD0); assay: non-reducing SDS-PAGE of oxidised protein; type: binding; conditions: covalent oxidation, reversible intersubunit disulfide dimer; 15 min incubation; 0.55 nM CuOOH as printed; reversed by DTT
T1 construct: gene SMc00098; full-length ORF in pET22b+, C-terminal 6His tag kept, E. coli BL21(DE3), heparin column; homodimer
T1 sequence (Q92RD0 1-158): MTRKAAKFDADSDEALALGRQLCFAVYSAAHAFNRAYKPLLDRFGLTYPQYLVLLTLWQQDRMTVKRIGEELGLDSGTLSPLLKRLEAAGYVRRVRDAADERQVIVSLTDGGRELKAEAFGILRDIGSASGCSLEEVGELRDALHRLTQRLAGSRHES

[2] = target: T2, OhrR (Sinorhizobium meliloti Rm1021 (S. meliloti chromosomal DNA; Rm1021?)) (UniProt Q92MX6); assay: EMSA; conditions: 20 mM Tris-HCl pH 8.0, 50 mM KCl, 1 mM EDTA, 50 uM BSA, room temperature 10 min, 20 ul, 20 pmol DNA, 0-100 pmol OhrR, 6% PAGE in Tris-borate, SYBR gold
T2 sequence: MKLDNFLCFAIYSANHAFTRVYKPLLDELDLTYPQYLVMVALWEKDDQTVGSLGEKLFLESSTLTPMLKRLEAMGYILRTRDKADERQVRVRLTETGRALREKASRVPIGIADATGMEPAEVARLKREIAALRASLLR

[3] = target: T3, OhrR (Sinorhizobium meliloti Rm1021 (S. …, UniProt Q92MX6 1-138)); assay: EMSA; 1 mM DTT; 20 mM Tris-HCl pH 8.0, 50 mM KCl, 1 mM EDTA, 50 uM BSA, room temperature 10 min, 20 ul; 20 pmol DNA, 0-100 pmol OhrR; 6% PAGE in Tris-borate, SYBR gold; 1 mM DTT in Fig 3C; conditions: protein: recombinant; tags: C-terminal 6xHis (pET22b+); chain copies: 2; label: none (SYBR gold stain); blunt
T3 sequence: T2 sequence

`CC(C)(OO)c1ccccc1` [CuOOH] was tested, and the “non-reducing SDS-PAGE of oxidised protein” value [1] was “Incubation of the protein with CuOOH or H2O2 led to the formation of a band”.

With “CATGACAGTCTCCTTCCTTGTGGTTGCCGGATTTATATATCGCAAGATTAAATAGCGCGCAAATTAATTTTGCAAATTGCTTTGCCGGCGTGAATTTGCGACAATGACATCAT (double strand) [ohr-ohrR intergenic region 113 bp]” the binding [2] was “binds”.

B1: M1 60 bp (dsDNA)
DNA 1: GGGGGGGAAGCTAGTCACCGCAAATTAATTTTGCGATACTAGAGAGATGCATATGGGGGG
DNA 2: CCCCCCATATGCATCTCTCTAGTATCGCAAAATTAATTTGCGGTGACTAGCTTCCCCCCC
B1: binds [3].

B2: Mut1 60 bp (GC to AA in motif 1) (dsDNA)
DNA 1: B1 DNA 1 with G20A, C21A
DNA 2: B1 DNA 2 with G40T, C41T
B2: no binding [3].

B3: M2 60 bp (dsDNA)
DNA 1: B1 DNA 1 with A27G, A28C, T32G, G33C
DNA 2: B1 DNA 2 with C28G, A29C, T33G, T34C
B3: binds [3].

B4: Mut2 60 bp (AAA to CCC in motif 1) (dsDNA)
DNA 1: B1 DNA 1 with A22C, A23C, A24C
DNA 2: B1 DNA 2 with T37G, T38G, T39G
B4: no binding [3].
